The source of these data is patent US9228015B2, “Nogo receptor antagonists and methods of increasing neurite outgrowth” (Biogen Idec MA Inc., priority 2006, dated 2016).

Assay [1] concerns Nogo-66, MAG and myelin action. The assay can be described thus: Blockade of Nogo-66, MAG and myelin action in vitro.
For assay [2], the system named is rats with mid-thoracic dorsal hemisection injury. The experiment in a line: Intrathecal sNogoR310-Fc in rats with mid-thoracic dorsal hemisection: axon tracing and histology. Type of assay: in vivo, rat. The text has this:
We isolated spinal cord 4 mm rostral to and 4 mm caudal to the lesion site (8 mm long in total) from transgenic mice and embedded it in a glutaraldehyde-polymerized albumin matrix, and cut parasagittally on a vibratome (30 μm thick). We collected transverse sections (50 μm) from the spinal cord 5-7 mm rostral to and 5-7 mm caudal to the injury site. For sNogoR310-Fc injection experiments in rats, the spinal cord extending from 10 mm rostral to 10 mm caudal from the lesion site was cut parasaggitally (50 μm) on a vibrating microtome. Transverse sections were collected from the spinal cord 11-16 mm rostral to and 11-16 mm caudal to the injury site. We incubated the sections with avidin-biotin-peroxidase complex and visualized the BDA tracer by nickel-enhanced diaminobenzidine HRP reaction (Grandpre, Nature 417:547-551 (2002)). We processed some sections for serotonin immunohistochemistry (anti-5-HT antibody) by indirect immunofluorescence. To visualize the lesion area, we double-stained some sections with antibodies directed against GFAP (Sigma®, St. Louis, Mo.). We mounted, dehydrated and covered the sections with mounting medium.
We fused the ligand binding domain (27-310) of rat Nogo receptor-1 to the rat IgG1 Fc domain to promote stability and purification. We purified protein from stably transfected CHO cells. This protein blocks Nogo-66, MAG and myelin action in vitro, as shown previously for mouse sNogoR310-Myc His (Fournier et al., J Neurosci. 22:8876-8883 (2002); Liu et al., Science 297:1190-1193 (2002)). We delived sNogoR310-Fc protein intrathecally to rats with a mid-thoracic dorsal hemisection injury through an osmotic minipump. During a four-week survival period after injury, 1.2 mg sNogoR310-Fc protein was locally administered in each rat. In rats receiving the vehicle treatment (1.2 mg rat IgG), sections rostral to hemisection display the tightly bundled prominent dorsal CST and very few ectopic BDA-labeled CST fibers above the lesion site. […] Numerous ectopic fibers sprouting from the BDA-labeled CST are observed from transverse and parasagittal sections. In some cases, projections cross from the dCST area near the midline to the circumference of the cord, becoming intermingled with the dorsolateral CST. The sprouting axons extend though gray matter to a greater extent than white matter.
(§1) We deeply anaesthetized female Sprague-Dawley rats (190-250 g) and conducted laminectomies at spinal levels of T6-7, exposing the spinal cord. We cut the dorsal half of the spinal cord with a 30-gauge needle and a pair of microscissors to sever the dorsal parts of CSGT tracts, and assured the depth of the lesion (1.8 mm) by passing the sharp part of a number 11 blade across the dorsal half of the cord (Grandpre et al., Nature 417:547-551 (2002)). An osmotic minipump (Alzet® 2ML4, 2 ml volume, 2.5 μl/h, 28 day delivery), which was filled with 1.2 mg rat IgG in PBS or 1.2 mg sNogoR310-Fc fusion protein in PBS, was sutured to muscles under the skin on the back of the animals. A catheter connected to the outlet of the minipump was inserted into the intrathecal space of the spinal cord at the T7-8 level through a small hole in the dura.
Fourteen days after hemisection, a burr hole was made on each side of the skull overlying the sensorimotor cortex of the lower limbs to trace CST fibers. The anterograde neuronal tracer BDA (10% in PBS, 3.5 μl per cortex) was applied at seven injection sites at a depth of 1.5 mm from dura on each side (Grandpre et al., Nature 417:547-551 (2002)). For rubrospinal tract tracing in rats, the tracer BDA (1 μl; MW 10,000; 10% in PBS) was injected into red nucleus on the left side (5.8 mm posterior to bregma, 0.7 mm lateral, 7.0 mm ventral to the skull surface). Two weeks after BDA injection, these animals were perfused with PBS, followed by 4% paraformaldehyde, and tissue was collected for histology.

The test system is the same in assay [3]. The experiment in a line: Intrathecal sNogoR310-Fc in rats with dorsal hemisection: behavioral tests. Type of assay: in vivo, rat.
From the text: The Basso-Beattie-Bresnahan (BBB) locomotor rating scale (Basso et al., Neurotrauma 13:343-359 (1996)), the inclined plane test and the inclined grid walking test (Li and Strittmatter, J Neurosci. 23:4219-27 (2003)) were monitored in rats and mice after injury. For the inclined plane test, we measured the maximal angle to which a 50 cm×60 cm board could be angled for 5 sec without the mouse sliding off. For inclined grid walking, the mice were trained to climb a wire grid (35 cm long with 2.54 cm squares) at a slope of 45 degrees. The number of instances in which the hindpaw dropped below the grid plane was scored for each excursion from bottom to top. For the rat behavioral testing, BBB locomotor scale, grid walking and footprint analysis were performed. For grid walking, the rats were trained to walk on a wire grid (70 cm long with 2.54 an squares), and the number of instances in which the hindpaw dropped below the grid plane was counted. For footprint analysis, the walking patterns of rat hindpaws were recorded with ink during a continuous locomotion across a 90 cm runway, and stride length on each side and stride width were calculated (Metz et al., Brain Res. 883:165-177 (2000)). All of these behavioral tests were performed by at least two individuals. Throughout the surgery, behavioral testing and histologic analysis, researchers were blind to the identity of the compound in the minipump.
as §1, with “A catheter connected to the outlet of the minipump was inserted into the intrathecal space of the spinal cord at the T7-8 level through a small hole in the dura.” left out

Assay [4] relates to DRG neurons, myelin-mediated inhibition of neurite outgrowth. The assay can be described thus: Neurite outgrowth assay, P3-4 rat DRG neurons, myelin mixed with test protein (Example 10). Type of assay: cell-based. The note with it: mixed with CNS myelin, FIGS. 9-11. The procedure: Lab-Tek® culture slides (4 wells) were coated with 0.1 mg/ml poly-D-lysine (Sigma®). CNS myelin alone or mixed with sNogoR310, sNogoR310-Fc fusion protein, mAb 5B10 or control PBS were separately spotted as 3 μl drops. Fluorescent microspheres (Polysciences) were added to the myelin/PBS to allow later identification of the drops (Grandpre et al., Nature 403:439-444 (2000)). Lab-Tek® slides were then rinsed and coated with 10 μg/ml laminin (Gibco™).
Dorsal root ganglions (DRG's) from P3-4 Sprague Dawley rat pups were dissociated with 1 mg/ml collagenase type 1 (Worthington), triturated with fire-polished Pasteur pipettes pre-plated to enrich in neuronal cells and finally plated at 23,000 cells/well on the pre-coated Labtek culture slides. The culture medium was F12 containing 5% heat inactivated donor horse serum, 5% heat inactivated fetal bovine serum and 50 ng/ml mNGF and incubated at 37° C. and 5% CO2 for 6 hours.
Slides were fixed for 20 minutes with 4% paraformaldehyde containing 20% sucrose and stained for the neuronal marker anti beta-III-tubulin (Covance TUJ1) diluted 1:500. As secondary antibody anti-mouse Alexa Fluor® 594 (Molecular Probes) was diluted 1:300 and slides were coverslipped with Gel/Mount™ (Biømeda™). 5× digital images were acquired with OpenLab™ software and analyzed by using the MetaMorph® software for quantification of neurite outgrowth.

For assay [5], the system named is rats with dorsal hemisection of the spinal cord. The experiment in a line: Rat spinal cord transection assay (Example 12). Type of assay: in vivo. The note with it: intrathecal pump, up to 28 days, FIG. 12. The procedure:
Alzet® osmotic pumps were loaded with test solution (sNogoR310-Fc in PBS) made up freshly on the day of use. The loading concentration was calculated to be 5 and 50 μM. Pumps were primed for >40 hours at 37° C. prior to implantation into animals. Female Long Evans rats were given pre-operative analgesia and tranquilizer and anesthetized using isoflurane (3% in O2).
Rats were placed in a stereotaxic frame and the motor cortex exposed for infusion of the tract tracing agent BDA (10,000 MW) bilaterally. Rats then underwent dorsal hemisection of the spinal cord at TS-T6 followed by implantation of the intrathecal catheter and pump system to deliver test compound (n=1 per group).
Rats were allowed to recover and survive up to 28 days after surgery. Behavioral scoring using the BBB system was recorded up to 28 days after induction of injury, just prior to termination of the in-life phase of the study. […]
The Basso-Beattie-Bresnahan (BBB) locomotor rating scale (Basso et al., Neurotrauma 13:343-359 (1996)), the inclined plane test and the inclined grid walking test (Li and Strittmatter, J Neurosci. 23:4219-27 (2003)) were monitored in rats and mice after injury. For the inclined plane test, we measured the maximal angle to which a 50 cm×60 cm board could be angled for 5 sec without the mouse sliding off. […]

B1: sNogoR310-Fc: fusion protein comprising amino acids 26-310 of rat Nogo receptor-1 and a rat Fc fragment (protein)
chain: PCPGACVCYNEPKVTTSRPQQGLQAVPAGIPASSQRIFLHGNRISYVPAASFQSCRNLTILWLHSNALAGIDAAAFTGLTLLEQLDLSDNAQLRVVDPTTFRGLGHLHTLHLDRCGLQELGPGLFRGLAALQYLYLQDNNLQALPDNTFRDLGNLTHLFLHGNRIPSVPEHAFRGLHSLDRLLLHQNHVARVHPHAFRDLGRLMTLYLFANNLSMLPAEVLVPLRSLQYLRLNDNPWVCDCRARPLWAWLQKFRGSSSGVPSNLPQRLAGRDLKRLATSDLEGCA
modifications: left off: a dimerising Fc or GST
notes: fusion protein comprising amino acids 26-310 of rat Nogo receptor-1 and a rat Fc fragment
B1: the “blocks Nogo-66, MAG and myelin action in vitro” value in assay [1] was “blocks”. For the same molecule, in assay [2] (1-2 mm caudal to lesion, each rat), the “BDA-labeled axons from sagittal sections” value is given as “approximately 20”. For the same molecule, the number of sprouts in assay [2] (1-10 mm caudal) is recorded as roughly 50 sprouts/rat. The “traced axons from sagittal sections” value in assay [2] (7-8 mm distal to lesion, each rat) is reported as roughly 15. The “serotonin fibers relative to control group” value in assay [2] (11-15 mm below the lesion) was “twice as numerous”. In addition, in assay [2] (11-15 mm rostral to lesion), the “density of serotonergic fibers vs vehicle” value was “similar”. The “total collateral length of each sprout relative to NEP 1-40-treated animals” value in assay [2] (distal spinal cord) is “twice as great”. For the same molecule, the “ectopic sprouting fibers adjacent to the dCST” value in assay [2] (rostral to lesion, 1.2 mg intrathecal over four weeks) is “greater increase”. In addition, in assay [2] (transverse sections 11-15 mm caudal to hemisection), the “average number of BDA-labeled CST fibers relative to vehicle-treated rats” value is on record as “approximately 20 fold”. Moreover, the “BDA-labeled RST fibers” value in assay [2] (transverse sections 11-15 mm distal to SCI) is on record as “many BDA-labeled RST fibers”. In addition, the grid walking errors in assay [3] (2-4 weeks post-injury, on average) is on record as 4-7 /session. Besides, in assay [3] (2-4 weeks post-trauma), the “locomotor BBB score” value is “continues to improve”. Also, the “animals with consistent forelimb-hindlimb coordination and parallel paw position” value in assay [3] (4 weeks after injury, 9 treated animals) came to 9. For the same molecule, the “protection of DRG neurons from myelin-mediated inhibition of neurite outgrowth” value in assay [4] is recorded as “protected”. Besides, in assay [5], the “functional recovery (BBB score)” value is on record as “promoted functional recovery”.
